Results as given in the supplement of paper PMC10065799, “High-throughput profiling of sequence recognition by tyrosine kinases and SH2 domains using bacterial peptide display” (eLife, 2023).

Columns and labels:
SHP2-C SH2 = experiment: SH2 binding enrichment of the phosphorylated peptide, bacterial display (enrichment ratio); higher = better substrate or ligand; peptides without Tyr show the background
Grb2 SH2 = Grb2 SH2 (UniProt P62993); experiment: as above
c-Src SH2 = experiment: as above
MERTK = MERTK (UniProt Q12866); experiment: phosphorylation enrichment, bacterial display (enrichment ratio); higher = better substrate or ligand; peptides without Tyr show the background
AncSZ = experiment: as above
Jak2 = Jak2 (UniProt O60674); experiment: as above
Fyn = Fyn (UniProt P06241); experiment: as above
c-Abl (mouse) = experiment: as above
FGFR1 = FGFR1 (UniProt P11362); experiment: as above
Fer (mouse) = experiment: as above
EPHB1 = EPHB1 (UniProt P54762); experiment: as above
c-Src = experiment: as above
Fes = Fes (UniProt P07332); experiment: as above
Hck = Hck (UniProt P08631); experiment: as above
EPHB2 = EPHB2 (UniProt P29323); experiment: as above
FGFR3 = FGFR3 (UniProt P22607); experiment: as above
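Wherever SH2 binding enrichment of the phosphorylated peptide, bacterial display is given: peptide library displayed on the E. coli surface as eCPX fusions, selected cells deep-sequenced, score is each peptide's frequency after selection divided by its frequency in the input.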
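Wherever phosphorylation enrichment, bacterial display is given: 11-residue human phosphosite peptides and single-mutation variants displayed on the E. coli surface, counted by deep sequencing, each peptide's frequency after selection divided by its frequency in the unselected input library; frequency after pTyr selection over input frequency; kinase dosed for 20-30% of maximal phosphorylation in three min.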

Chain of Hck (P08631 whole entry, looked up): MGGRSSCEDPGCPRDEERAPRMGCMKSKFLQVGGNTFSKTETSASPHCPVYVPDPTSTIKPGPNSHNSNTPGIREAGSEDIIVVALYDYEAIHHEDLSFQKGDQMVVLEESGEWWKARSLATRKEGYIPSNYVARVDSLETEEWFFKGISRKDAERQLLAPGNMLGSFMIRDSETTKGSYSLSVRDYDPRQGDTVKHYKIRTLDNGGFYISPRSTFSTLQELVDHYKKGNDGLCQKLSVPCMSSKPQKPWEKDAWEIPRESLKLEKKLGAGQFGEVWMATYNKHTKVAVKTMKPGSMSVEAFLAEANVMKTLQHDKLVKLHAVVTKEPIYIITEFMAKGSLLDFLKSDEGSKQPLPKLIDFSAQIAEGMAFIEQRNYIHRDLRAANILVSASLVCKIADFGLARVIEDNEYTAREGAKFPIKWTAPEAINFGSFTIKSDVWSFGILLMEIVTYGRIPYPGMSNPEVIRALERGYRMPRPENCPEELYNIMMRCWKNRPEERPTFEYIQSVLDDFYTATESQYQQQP
Chain of FGFR1 (P11362 whole entry, looked up): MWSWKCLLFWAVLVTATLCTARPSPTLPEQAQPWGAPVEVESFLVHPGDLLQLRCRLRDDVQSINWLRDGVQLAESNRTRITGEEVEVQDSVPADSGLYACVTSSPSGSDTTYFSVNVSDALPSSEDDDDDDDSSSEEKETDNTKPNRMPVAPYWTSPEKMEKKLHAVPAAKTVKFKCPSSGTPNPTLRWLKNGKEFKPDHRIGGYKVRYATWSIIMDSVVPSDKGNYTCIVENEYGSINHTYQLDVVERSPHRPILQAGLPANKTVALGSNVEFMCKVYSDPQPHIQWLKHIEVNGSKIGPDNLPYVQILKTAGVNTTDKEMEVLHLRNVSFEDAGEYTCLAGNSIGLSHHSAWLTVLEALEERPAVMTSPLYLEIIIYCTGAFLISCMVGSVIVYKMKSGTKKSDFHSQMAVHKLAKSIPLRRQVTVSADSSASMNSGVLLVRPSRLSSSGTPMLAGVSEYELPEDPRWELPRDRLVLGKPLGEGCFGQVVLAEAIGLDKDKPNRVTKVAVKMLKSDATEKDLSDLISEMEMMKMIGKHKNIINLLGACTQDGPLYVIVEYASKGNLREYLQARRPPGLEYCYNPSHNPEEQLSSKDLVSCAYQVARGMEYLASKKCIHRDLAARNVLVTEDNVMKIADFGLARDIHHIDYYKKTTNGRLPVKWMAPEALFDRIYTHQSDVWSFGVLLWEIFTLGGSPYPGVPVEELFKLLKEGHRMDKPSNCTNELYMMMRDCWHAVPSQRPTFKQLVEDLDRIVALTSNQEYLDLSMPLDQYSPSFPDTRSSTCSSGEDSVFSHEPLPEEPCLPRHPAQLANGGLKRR
Chain of Grb2 SH2 (P62993 whole entry, looked up): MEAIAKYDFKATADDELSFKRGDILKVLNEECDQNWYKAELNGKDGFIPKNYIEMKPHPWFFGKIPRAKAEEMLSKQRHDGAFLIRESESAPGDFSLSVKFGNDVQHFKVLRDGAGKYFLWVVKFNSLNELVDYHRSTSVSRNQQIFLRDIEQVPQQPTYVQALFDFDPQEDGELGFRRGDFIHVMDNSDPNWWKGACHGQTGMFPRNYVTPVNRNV
Chain of EPHB1 (P54762 whole entry, looked up): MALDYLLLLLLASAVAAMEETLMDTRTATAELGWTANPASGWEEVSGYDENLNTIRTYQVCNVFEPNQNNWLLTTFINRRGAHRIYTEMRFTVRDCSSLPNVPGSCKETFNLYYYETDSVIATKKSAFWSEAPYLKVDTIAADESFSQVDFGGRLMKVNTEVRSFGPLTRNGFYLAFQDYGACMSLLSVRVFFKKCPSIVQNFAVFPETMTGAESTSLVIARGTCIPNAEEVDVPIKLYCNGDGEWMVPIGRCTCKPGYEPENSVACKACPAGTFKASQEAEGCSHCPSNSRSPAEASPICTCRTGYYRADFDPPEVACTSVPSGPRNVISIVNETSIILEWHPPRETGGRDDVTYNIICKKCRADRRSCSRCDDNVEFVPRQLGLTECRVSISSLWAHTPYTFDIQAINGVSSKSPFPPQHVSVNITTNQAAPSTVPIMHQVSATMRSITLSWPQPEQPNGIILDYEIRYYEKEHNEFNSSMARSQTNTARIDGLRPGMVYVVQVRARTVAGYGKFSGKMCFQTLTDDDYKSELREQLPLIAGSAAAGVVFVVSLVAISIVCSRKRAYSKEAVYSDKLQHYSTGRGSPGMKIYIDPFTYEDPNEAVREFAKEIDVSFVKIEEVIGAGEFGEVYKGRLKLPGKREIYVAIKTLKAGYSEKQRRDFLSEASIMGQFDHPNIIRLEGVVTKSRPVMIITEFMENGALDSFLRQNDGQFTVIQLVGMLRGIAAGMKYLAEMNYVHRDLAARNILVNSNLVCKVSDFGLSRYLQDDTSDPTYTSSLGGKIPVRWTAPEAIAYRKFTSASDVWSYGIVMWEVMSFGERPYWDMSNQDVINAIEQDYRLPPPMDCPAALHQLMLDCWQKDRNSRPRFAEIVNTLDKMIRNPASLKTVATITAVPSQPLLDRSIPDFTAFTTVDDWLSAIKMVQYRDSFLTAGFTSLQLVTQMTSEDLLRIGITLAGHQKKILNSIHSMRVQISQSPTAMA
Chain of Jak2 (O60674 whole entry, looked up): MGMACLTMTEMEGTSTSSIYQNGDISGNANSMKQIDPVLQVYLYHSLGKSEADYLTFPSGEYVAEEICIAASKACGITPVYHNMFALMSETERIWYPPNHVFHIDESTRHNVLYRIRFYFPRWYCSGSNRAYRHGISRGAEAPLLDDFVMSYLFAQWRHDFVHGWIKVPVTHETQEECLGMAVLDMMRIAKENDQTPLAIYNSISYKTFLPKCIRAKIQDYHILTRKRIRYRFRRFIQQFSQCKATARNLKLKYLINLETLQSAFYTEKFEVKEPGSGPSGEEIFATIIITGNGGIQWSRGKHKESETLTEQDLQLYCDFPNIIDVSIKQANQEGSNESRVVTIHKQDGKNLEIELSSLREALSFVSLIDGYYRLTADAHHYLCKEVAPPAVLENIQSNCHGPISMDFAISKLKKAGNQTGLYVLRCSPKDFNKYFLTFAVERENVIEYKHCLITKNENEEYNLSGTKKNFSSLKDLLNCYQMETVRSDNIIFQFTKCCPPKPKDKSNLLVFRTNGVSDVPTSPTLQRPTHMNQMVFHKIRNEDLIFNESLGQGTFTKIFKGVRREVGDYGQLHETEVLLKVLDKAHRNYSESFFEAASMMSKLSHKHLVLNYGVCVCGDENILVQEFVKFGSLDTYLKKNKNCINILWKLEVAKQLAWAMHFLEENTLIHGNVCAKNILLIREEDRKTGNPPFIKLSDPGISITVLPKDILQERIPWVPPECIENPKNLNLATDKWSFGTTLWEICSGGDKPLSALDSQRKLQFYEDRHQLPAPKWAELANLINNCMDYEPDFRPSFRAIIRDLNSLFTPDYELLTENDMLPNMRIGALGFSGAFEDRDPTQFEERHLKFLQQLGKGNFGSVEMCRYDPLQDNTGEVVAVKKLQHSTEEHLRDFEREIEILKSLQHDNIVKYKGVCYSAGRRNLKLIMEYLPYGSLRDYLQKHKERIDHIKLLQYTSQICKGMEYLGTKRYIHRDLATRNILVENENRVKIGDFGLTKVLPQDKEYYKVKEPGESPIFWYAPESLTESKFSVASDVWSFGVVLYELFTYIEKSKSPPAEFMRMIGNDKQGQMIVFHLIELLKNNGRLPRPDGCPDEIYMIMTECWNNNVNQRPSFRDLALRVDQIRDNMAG
Chain of EPHB2 (P29323 whole entry, looked up): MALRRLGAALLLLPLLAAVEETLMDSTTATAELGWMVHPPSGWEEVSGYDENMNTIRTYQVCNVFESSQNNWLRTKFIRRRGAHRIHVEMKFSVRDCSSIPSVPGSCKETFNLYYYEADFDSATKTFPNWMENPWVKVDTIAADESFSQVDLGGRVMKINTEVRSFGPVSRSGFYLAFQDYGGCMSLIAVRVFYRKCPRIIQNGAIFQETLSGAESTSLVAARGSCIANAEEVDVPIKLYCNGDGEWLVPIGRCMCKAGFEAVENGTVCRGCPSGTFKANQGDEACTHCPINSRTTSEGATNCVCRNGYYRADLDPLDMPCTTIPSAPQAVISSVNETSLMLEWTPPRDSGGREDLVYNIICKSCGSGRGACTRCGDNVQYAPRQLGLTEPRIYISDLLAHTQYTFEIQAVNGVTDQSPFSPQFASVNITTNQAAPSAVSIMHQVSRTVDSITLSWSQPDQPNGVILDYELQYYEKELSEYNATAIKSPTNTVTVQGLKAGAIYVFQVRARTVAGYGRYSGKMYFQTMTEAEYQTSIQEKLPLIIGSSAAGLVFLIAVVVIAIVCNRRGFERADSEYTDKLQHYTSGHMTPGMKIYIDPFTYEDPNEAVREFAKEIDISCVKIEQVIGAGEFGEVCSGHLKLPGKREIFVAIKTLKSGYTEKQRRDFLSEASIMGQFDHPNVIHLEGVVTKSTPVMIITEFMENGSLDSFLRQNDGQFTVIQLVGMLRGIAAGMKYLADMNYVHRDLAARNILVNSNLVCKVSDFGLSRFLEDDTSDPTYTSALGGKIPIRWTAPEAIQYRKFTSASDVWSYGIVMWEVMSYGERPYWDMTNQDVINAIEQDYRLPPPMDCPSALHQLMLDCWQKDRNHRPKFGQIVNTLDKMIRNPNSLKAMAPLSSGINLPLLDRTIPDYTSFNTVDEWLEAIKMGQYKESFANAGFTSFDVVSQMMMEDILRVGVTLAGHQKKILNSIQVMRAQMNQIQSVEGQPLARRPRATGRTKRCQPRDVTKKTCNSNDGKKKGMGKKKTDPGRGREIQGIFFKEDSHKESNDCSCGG

| Sequence | SH2 binding enrichment (SHP2-C SH2) | SH2 binding enrichment (Grb2 SH2) | SH2 binding enrichment (c-Src SH2) | phosphorylation enrichment (MERTK) | phosphorylation enrichment (AncSZ) | phosphorylation enrichment (Jak2) | phosphorylation enrichment (Fyn) | phosphorylation enrichment (c-Abl (mouse)) | phosphorylation enrichment (FGFR1) | phosphorylation enrichment (Fer (mouse)) | phosphorylation enrichment (EPHB1) | phosphorylation enrichment (c-Src) | phosphorylation enrichment (Fes) | phosphorylation enrichment (Hck) | phosphorylation enrichment (EPHB2) | phosphorylation enrichment (FGFR3) |
| --- | --- | --- | --- | --- | --- | --- | --- | --- | --- | --- | --- | --- | --- | --- | --- | --- |
| GENTMYAQVFN [LY9_Y603] | 10.1 | 0.751 | 1.84 | 2.18 | 0.912 | 0.803 | 2.5 | 0.958 | 0.56 | 5.6 | 1.47 | 2.38 | 0.968 | 3.32 | 0.787 | 0.561 |
| MYQVQYNSSVD [LRFN1_Y458] | 0.748 | 0.735 | 0.514 | 0.699 | 1.05 | 0.721 | 0.559 | 0.52 | 0.488 | 0.52 | 0.606 | 0.417 | 0.963 | 0.505 | 0.69 | 0.686 |
| PRIHSYRGHLW [VHL_Y112_R107P] | 1.86 | 1.55 | 1.89 | 0.655 | 1.01 | 0.628 | 0.611 | 1.09 | 0.771 | 0.722 | 1.56 | 0.748 | 1.08 | 0.713 | 0.451 | 0.579 |
| WFQTKYEELQI [KRT6B_Y360_YF] | 1.12 | 0.953 | 8.63 | 0.403 | 0.839 | 0.987 | 0.38 | 0.651 | 0.428 | 0.46 | 0.446 | 0.398 | 0.981 | 0.417 | 0.488 | 0.633 |
| RLNWIYYKDQT [RS1_Y165] | 0.801 | 1.11 | 0.735 | 0.672 | 1.53 | 1.78 | 0.687 | 0.676 | 0.643 | 0.844 | 0.985 | 0.616 | 2.66 | 0.947 | 0.712 | 0.98 |
| FMKEPYIQSRF [HIPK4_Y175_V171M_YF] | 0.687 | 0.964 | 0.57 | 0.452 | 0.54 | 0.807 | 0.332 | 0.548 | 0.372 | 0.275 | 0.257 | 0.474 | 0.643 | 0.393 | 0.412 | 0.449 |
| FSLIHYASIVD [MYH7_Y582_G584S] | 37.2 | 1.08 | 7.83 | 0.475 | 1.07 | 1.13 | 0.488 | 0.847 | 0.479 | 0.714 | 0.83 | 0.442 | 1.29 | 0.575 | 0.692 | 1.01 |
| VYPATYHPDHW [EFCAB12_Y544] | 0.635 | 1.03 | 0.53 | 0.296 | 0.554 | 0.639 | 0.465 | 0.526 | 0.564 | 0.419 | 0.423 | 0.436 | 0.662 | 0.689 | 0.385 | 0.828 |
| RARPPYTVAAD [ANKZF1_Y572] | 1.14 | 1.27 | 0.933 | 0.418 | 0.551 | 0.58 | 0.35 | 0.466 | 0.39 | 0.443 | 0.4 | 0.349 | 0.591 | 0.45 | 0.378 | 0.458 |
| LPIQTYSALNF [DES_Y423] | 0.834 | 0.735 | 1.08 | 15.9 | 1.01 | 1.27 | 13.8 | 1.59 | 2.1 | 11.1 | 14.3 | 8 | 1.24 | 18.9 | 11.7 | 2.07 |
| RVGVDYEGRGC [PLOD1_Y675_G678R] | 0.797 | 0.902 | 0.638 | 0.59 | 1.01 | 0.616 | 0.542 | 0.575 | 0.617 | 0.51 | 0.69 | 0.424 | 1.02 | 0.528 | 0.464 | 0.709 |
| EEVGIYRMSGV [BCR_Y1089_V1091M] | 0.957 | 0.744 | 0.431 | 0.647 | 0.925 | 1.12 | 6.38 | 9.58 | 0.556 | 0.535 | 0.55 | 6.23 | 0.921 | 5.64 | 0.502 | 0.612 |
| FFRKVYHLASV [RBL1_Y796_YF] | 0.721 | 0.979 | 0.667 | 0.36 | 0.697 | 0.713 | 0.491 | 0.581 | 0.46 | 0.374 | 0.439 | 0.503 | 0.781 | 0.337 | 0.415 | 0.545 |
| HFVDEYDRTIE [KRAS_Y32_P34R] | 0.682 | 1.06 | 1.14 | 0.58 | 2.01 | 1.67 | 0.653 | 1.36 | 0.644 | 0.794 | 0.875 | 0.989 | 1.66 | 0.701 | 0.805 | 0.932 |
| KAIMIYVSSFF [ACTN4_Y260_T259I_YF] | 0.967 | 0.948 | 0.567 | 0.457 | 0.945 | 0.925 | 0.422 | 0.684 | 0.446 | 0.444 | 0.457 | 0.534 | 1.06 | 0.429 | 0.606 | 0.666 |
| ERTIEYLEEVA [HADHA_Y239] | 0.637 | 0.774 | 0.513 | 0.541 | 1.28 | 1.2 | 0.722 | 0.863 | 0.608 | 0.663 | 0.593 | 0.521 | 1.35 | 0.622 | 0.704 | 0.845 |
| QISSNYDDAMQ [ZNF281_Y531] | 0.728 | 0.667 | 1.11 | 0.845 | 0.962 | 0.939 | 0.348 | 0.569 | 0.434 | 0.533 | 0.665 | 0.57 | 0.978 | 0.499 | 0.771 | 0.703 |

| Sequence | SH2 binding enrichment (SHP2-C SH2) | SH2 binding enrichment (Grb2 SH2) | SH2 binding enrichment (c-Src SH2) | phosphorylation enrichment (MERTK) | phosphorylation enrichment (AncSZ) | phosphorylation enrichment (Jak2) | phosphorylation enrichment (Fyn) | phosphorylation enrichment (c-Abl (mouse)) | phosphorylation enrichment (FGFR1) | phosphorylation enrichment (Fer (mouse)) | phosphorylation enrichment (EPHB1) | phosphorylation enrichment (c-Src) | phosphorylation enrichment (Fes) | phosphorylation enrichment (Hck) | phosphorylation enrichment (EPHB2) | phosphorylation enrichment (FGFR3) |
| --- | --- | --- | --- | --- | --- | --- | --- | --- | --- | --- | --- | --- | --- | --- | --- | --- |
| LERYIYNREEL [HLA-DPB1_Y59_F64L] | 0.709 | 0.914 | 0.852 | 0.371 | 0.713 | 0.731 | 0.987 | 0.777 | 0.41 | 0.444 | 0.653 | 1.93 | 0.944 | 1.55 | 0.407 | 0.58 |
| IRTIDYRFTVS [IDS_Y497_W502S_YF] | 1.18 | 1.18 | 0.813 | 0.441 | 0.907 | 0.989 | 0.424 | 0.989 | 0.483 | 0.596 | 0.496 | 0.458 | 1.05 | 0.444 | 0.547 | 0.683 |
| HTDDGYMPMSP [IRS1_Y612] | 0.882 | 0.771 | 2.53 | 0.883 | 1.94 | 1.37 | 0.839 | 1.04 | 1.45 | 0.824 | 0.787 | 0.503 | 1.59 | 0.834 | 0.756 | 0.757 |
| EFNLMYDGAKE [IRF6_Y97_T100A] | 0.684 | 0.965 | 0.626 | 0.517 | 1.35 | 1.13 | 0.594 | 0.857 | 0.652 | 0.593 | 0.593 | 0.584 | 1.29 | 0.702 | 0.576 | 0.845 |
| KMTGRYEMFAR [UPB1_Y362_YF] | 1.07 | 1.36 | 1.75 | 0.633 | 0.808 | 0.586 | 0.386 | 0.571 | 0.499 | 0.438 | 0.496 | 0.451 | 0.815 | 0.505 | 0.556 | 0.53 |
| LVRAFYCERRW [CARD11_Y970_R975W] | 0.681 | 0.953 | 0.49 | 0.64 | 1.05 | 0.857 | 0.649 | 0.695 | 0.575 | 0.59 | 0.671 | 0.489 | 0.745 | 0.634 | 0.623 | 0.697 |
| VSYGEYRYRSV [CFTR_Y515_D513G] | 0.369 | 0.529 | 0.451 | 0.363 | 0.688 | 0.612 | 5.66 | 0.605 | 0.505 | 0.442 | 0.452 | 3.22 | 0.824 | 2.04 | 0.416 | 0.469 |
| QRIHDYFEHRF [HCN4_Y554_YF] | 0.46 | 0.847 | 0.957 | 0.447 | 1.06 | 0.575 | 0.479 | 0.625 | 5.67 | 0.872 | 0.614 | 0.496 | 0.656 | 0.527 | 0.843 | 3.23 |
| YKEDPYLVVNP [MCM6_Y810_E806K] | 0.538 | 0.829 | 0.58 | 0.455 | 1.19 | 1.03 | 1.04 | 0.662 | 1.24 | 0.46 | 0.405 | 1.74 | 1.11 | 0.591 | 0.515 | 1.09 |
| FKDFFYCWNTF [AICDA_Y146_YF] | 0.631 | 0.696 | 0.423 | 2.55 | 1.87 | 1.73 | 0.618 | 1.19 | 0.749 | 1.41 | 0.862 | 1.25 | 1.93 | 0.624 | 0.804 | 1.09 |
| IPTPAYQSSPA [PDCD6IP_Y727] | 0.566 | 0.767 | 0.567 | 0.356 | 0.489 | 0.541 | 0.406 | 0.504 | 0.377 | 0.373 | 0.452 | 0.369 | 0.674 | 0.38 | 0.364 | 0.422 |
| FENGEYIVRQG [PRKG1_Y247_I249V_YF] | 0.552 | 1.06 | 0.637 | 0.39 | 0.888 | 0.685 | 0.468 | 0.646 | 0.437 | 0.523 | 0.612 | 0.43 | 0.962 | 0.551 | 0.641 | 0.922 |
| RAQIRYAQEHD [NSD1_Y1987_R1984Q] | 0.725 | 1.13 | 0.409 | 0.912 | 1.72 | 0.911 | 0.633 | 0.889 | 0.507 | 0.56 | 0.458 | 0.847 | 0.816 | 0.667 | 0.575 | 0.768 |
| PGLKGYPGLSG [COL4A2_Y306_R304K] | 0.504 | 0.652 | 0.431 | 0.367 | 0.476 | 0.422 | 0.213 | 0.639 | 0.369 | 0.218 | 0.474 | 0.347 | 0.468 | 0.434 | 0.307 | 0.318 |
| GVIKEYQIRQV [USH2A_Y3623] | 0.689 | 0.902 | 0.501 | 0.359 | 0.627 | 0.606 | 0.356 | 0.422 | 0.454 | 0.353 | 0.376 | 0.372 | 0.575 | 0.363 | 0.349 | 0.476 |
| PLGPLYASSNT [INSR_Y992_P997T] | 1.1 | 0.914 | 0.526 | 1.12 | 1.87 | 0.723 | 0.908 | 1.51 | 0.633 | 1.1 | 0.896 | 1.22 | 0.949 | 3.67 | 0.783 | 0.73 |
